Experimental data as given in patent US20210380714A1 (Amgen, published 2021).
Numbering of substitutions follows the chain as printed.

Key:
Mouse MSLN = biological target: T1, Mouse MSLN (Mus musculus, UniProt Q61468); experiment: FACS on 293T cells transiently expressing the orthologue
T1 construct: also called murine mesothelin
T1 sequence (target, looked up): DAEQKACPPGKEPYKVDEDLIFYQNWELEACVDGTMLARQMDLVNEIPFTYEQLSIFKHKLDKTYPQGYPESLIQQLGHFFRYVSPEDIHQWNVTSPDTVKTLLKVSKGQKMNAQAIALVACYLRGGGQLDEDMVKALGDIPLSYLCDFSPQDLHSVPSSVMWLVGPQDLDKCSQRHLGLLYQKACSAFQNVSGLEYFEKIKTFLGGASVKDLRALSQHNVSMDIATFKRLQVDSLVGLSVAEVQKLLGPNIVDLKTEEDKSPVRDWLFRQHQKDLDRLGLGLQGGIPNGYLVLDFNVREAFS

Rat MSLN = biological target: T2, Rat MSLN (Rattus norvegicus, UniProt Q9ERA7); experiment: as above
T2 construct: also called rat mesothelin
T2 sequence (target, looked up): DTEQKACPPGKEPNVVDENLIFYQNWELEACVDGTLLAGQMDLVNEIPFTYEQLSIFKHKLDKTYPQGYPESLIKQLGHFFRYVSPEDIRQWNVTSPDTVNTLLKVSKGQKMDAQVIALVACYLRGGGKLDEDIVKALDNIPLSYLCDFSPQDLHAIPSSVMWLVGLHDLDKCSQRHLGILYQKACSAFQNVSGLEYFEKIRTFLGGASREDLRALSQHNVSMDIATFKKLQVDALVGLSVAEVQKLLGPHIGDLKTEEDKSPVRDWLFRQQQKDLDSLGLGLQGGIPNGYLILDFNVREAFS

B1: Ab237 (Hu-anti-huMesothelin-2.37-IgG1) (antibody, V domains shown)
VH: QVQLQESGPGLVKPSQTLSLTCTVSGGSINNNNYYWTWIRQHPGKGLEWIGYIYYSGSTFYNPSLKSRVTISVDTSKTQFSLKLSSVTAADTAVYYCAREDTMTGLDVWGQGTTVTVSS
VL: DIQMTQSPSSLSASVGDRVTITCRASQSINNYLNWYQQKPGKAPTLLIYAASSLQSGVPSRFSGSRSGTDFTLTISSLQPEDFAAYFCQQTYSNPTFGQGTKVEVK
notes: Fully human antibody from XenoMouse; Only the variable domains are tied to Ab237
B1: binds (Mouse MSLN); binds (Rat MSLN).

B2: 158.3 (antibody, V domains shown)
VH: QVQLQESGPGLVKPSETLSLTCTVSGGSIISHYWSWIRQPPGKGLEWIGYIYYSGSTNYNPSLKSRVTISVDTSKNQFSLKLTSVTAADTAVYYCARDGWSAFDYWGQGTLVTVSS
VL: DIQMTQSPSSLSASVGDRVTITCRASQGIRNALGWYQQKPGKAPKRLIYAASSLQSGVPSRFSGSGSGTEFTLTISSLQPEDFATYYCLQHNSYPRTFGQGTKVEIRR
notes: also called 1.58.3 g1; 1.58.3 g2
B2: no binding (Mouse MSLN).

B3: 151 (antibody, V domains shown)
VH: B2 VH with I30S, H32Y, T83S, D98V, G99D, W100Y, S101K, Y105I, L111M
VL: DIQMTQSPSSLSASVGDRVTITCRASQGIRNDLHWYQQKPGKAPKRLIYAASSLQSGVPSRFSGSGSGTEFTLTISSLQPEDFATYYCLQHYSYPWTFGQGTKVEIK
notes: also called Ab1.51
B3: no binding (Mouse MSLN).
